Source: publication doi:10.1101/2022.08.07.503104

Experiments:
[1] = biological target: Recombinant human CypA (human) (UniProt P62937); test: MST
[2] = biological target: Tat-CypA complex formed beforehand (HIV-1 (BH10 isolate) | human) (UniProt P69697); test: MST
[3] = biological target: Tat-CypA complex formed beforehand (HIV-1 (BH10 isolate) | human) (UniProt P69697); test: SPR
[4] = biological target: Recombinant Tat (86 residues, BH10 isolate) (HIV-1 (BH10 isolate)) (UniProt P69697); test: SPR
[5] = biological target: CypA-CA complex formed beforehand (human | HIV-1) (UniProt P62937); test: MST

Recombinant HIV-1 capsid protein (CA) (natural protein)
Kd [1]: 8300 nM
Kd [2]: 5500 nM
Kd [3]: 110 nM

CypA-CA complex formed beforehand (from UniProt P62937 1-165)
Kd [4]: 95 nM

Recombinant Tat (86 residues, BH10 isolate) (from UniProt P69697 1-86) (natural protein)
Kd [5]: 55 nM
